Measurements taken from US20140242694A1.

Molecular target: CD150 (signaling lymphocyte activation molecule, SLAM) on EBV-infected human B cells, Raji cells or IM-9 cells (human) (UniProt Q13291)
Test: cell-based or functional assay

UniProt Q13291, sequence (Q13291 21-335): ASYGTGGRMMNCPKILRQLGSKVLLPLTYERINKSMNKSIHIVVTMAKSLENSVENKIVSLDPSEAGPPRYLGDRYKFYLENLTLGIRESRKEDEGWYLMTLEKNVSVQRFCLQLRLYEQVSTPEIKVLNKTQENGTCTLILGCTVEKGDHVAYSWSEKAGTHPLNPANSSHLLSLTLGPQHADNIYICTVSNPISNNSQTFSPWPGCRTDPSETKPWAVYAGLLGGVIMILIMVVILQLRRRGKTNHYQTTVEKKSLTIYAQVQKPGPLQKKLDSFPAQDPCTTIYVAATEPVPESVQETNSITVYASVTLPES

Substance: anti-CD150 mAb (clone IPO-3, Affinity Bioreagents) (antibody)
- IL-1A production, mRNA level (real-time RT-PCR): 55 fold
- IL-1A production, protein level (ELISA): 23 fold
